Laboratory results as given in patent US20210322404A1, “FGFR REGULATION FOR THE TREATMENT OF VIRAL INFECTIONS” (ETH ZURICH, priority 2016, published 2021).

What was measured:
[1] = system: interferon-stimulated genes (ISGs); test: ISG expression in mouse keratinocytes treated with FGF7 and/or IFNα (qRT-PCR); assay type: cell-based
[2] = system: interferon-stimulated genes (ISGs); test: ISG expression in human keratinocytes (HaCaT, primary foreskin) treated with FGF7, FGF10 and/or IFNα (qRT-PCR); assay type: cell-based; settings: human primary foreskin keratinocytes and HaCaT, FGF7 10 ng/ml and IFNα 500 U/ml, 16 h
Protocol: FIG. 2F relates to serum-starved immortalized human keratinocytes (HaCaT cell line) that were treated for 6 h with FGF7, FGF10 (both 10 ng/ml) or vehicle (CTRL). RNA was analyzed by qRT-PCR for the expression of the indicated ISGs relative to RPLP0. Mean expression levels in CTRL cells were set to 1. Representative data from three experiments are shown. Scatter plot and mean values are shown in (A-D). Each dot represents a biological replicate.
FIGS. 3E and F pertain to confluent human primary foreskin keratinocytes and (E) or HaCaT cells (F) that were serum-starved for 24 h and treated with FGF7 (10 ng/ml) and/or IFNα (500 U/ml) for 16 h. Cells were analyzed for ISG mRNA levels by qRT-PCR relative to RPLP0. Mean expression levels in vehicle-treated (CTRL) cells were set to 1.
The human HaCaT keratinocyte cell line was cultured in DMEM (Sigma) supplemented with 10% FCS (Thermo Fisher). […]
Total RNA from isolated epidermis of mice or from total skin was purified with Trizol, followed by additional purification with the RNeasy Mini Kit, including on-column DNase treatment (Qiagen, Hilden, Germany). […] Relative gene expression was determined using the Roche LightCycler 480 SYBR Green system (Roche, Rotkreuz, Switzerland).

[3] = Active RAC1 detection after FGF7 treatment; assay type: cell-based, human; settings: HaCaT cells, FGF7 10 ng/ml, 10 min
Protocol: FIG. 4D pertains to mouse primary keratinocytes (left panel) or HaCaT cells (right panel), which had been treated with FGF7 (10 ng/ml) or vehicle for 10 min and analyzed for active RAC1 using the Active RAC1 detection kit (Cell Signaling). Activation of FGFR signaling under these conditions was verified by phosphorylation of ERK1/2 (p42/44).

HSV-1 = HSV-1 infection of human primary foreskin keratinocytes; settings: HSV-1 MOI=0.5, 24 h
LCMV = assay type: cell-based, Lymphocytic Choriomeningitis Virus; settings: HaCaT, LCMV MOI 0.05 or 0.2
[4] = system: interferon-stimulated response element (ISRE); test: ISRE luciferase reporter assay in immortalized mouse keratinocytes; assay type: cell-based; settings: FGF7 10 ng/ml and/or IFNα 1000 U/ml, 12 h
Protocol: FIG. 3C pertains to immortalized mouse keratinocytes that were co-transfected with TK-Renilla and pGL4.45[luc2P/ISRE/Hygro] plasmids, starved in serum-free medium and then treated with FGF7 (10 ng/ml) and/or IFNα (1000 U/ml) for 12 h. Firefly luciferase activity was determined in cell lysates and normalized to Renilla luciferase activity (transfection control). The mean value in vehicle-treated cells (CTRL) was set to 1.
Mouse keratinocytes and HEK 293 cells were transfected with the expression vector for TK-Renilla and the expression vector pGL4.45[luc2P/ISRE/Hygro] (Promega). The latter contains five copies of an ISRE that drives expression of the luciferase reporter gene. Cells were seeded into 12-well plates, cultured for 24 h, and transfected using Lipofectamine 2000 […]. They were then starved in serum-free medium, treated with FGF7 (10 ng/ml) and/or IFNα (1000 U/ml) for 12 h, lysed and analyzed using a dual-luciferase assay system (Promega) as described by the manufacturer. Relative light units were measured in a GloMax 96 microplate luminometer with dual injectors (Promega).

B1: FGF7: recombinant human FGF7, the classical ligand of FGFR2b (protein, UniProt P21781 32-194, looked up)
Fibroblast growth factor 7: CNDMTPEQMATNVNCSSPERHTRSYDYMEGGDIRVRRLFCRTQWYLRIDKRGKVKGTQEMKNNYNIMEIRTVAVGIVAIKGVESEFYLAMNKEGKLYAKKECNEDCNFKELILENHYNTYASAKWTHNGGEMFVALNQKGIPVRGKKTKKEQKTAHFLPMAIT
expression of Ifnα subtypes, Ifnβ and Il28a (Ifnλ2) ([1]; mouse keratinocytes, FGF7 10 ng/ml): not reduced | increase in ISG expression in response to IFNα ([1]; mouse primary keratinocytes, FGF7 10 ng/ml and IFNα 1000 U/ml, 6 h): reduced | ISG expression (qRT-PCR relative to Rps29) ([1]; primary and immortalized keratinocytes from wild-type mice, FGF7 10 ng/ml, 3 or 6 h): strongly suppressed | expression of ISGs in IFNAR-deficient cells ([1]; primary keratinocytes from Ifnar KO mice, FGF7 6 h): still suppressed expression of ISGs | increase in ISG expression in response to IFNα [2]: reduced | active RAC1 [3]: activated RAC1 | effect on HSV-1 infection (Glyc-B qPCR) (HSV-1): confirmed | expression levels of LCMV nucleoprotein (NP) / viral replication (LCMV): strongly increased | ISRE-driven luciferase activity [4]: counteracted
